Measured values: publication PMC3124080

Target: Trypanosoma cruzi uridine phosphorylase (Trypanosoma cruzi)
Test: SEC

**Q.** With “Trypanosoma cruzi uridine phosphorylase (enzyme)” as the substance, how does the stoichiometry N read?
**A.** Its stoichiometry N is 2.
